B1: 9E10.6_GS_3E2.1 (PR-1610563) (bispecific antibody, human IgG1, kappa, L234A L235A)
heavy: EVQLVQSGAEVKKPGSSVKVSCKASGYTFTNYGMYWVRQAPGQGLEWMGWIDTETGRPTYADDFKGRFTFTADKSTSTAYMELSSLRSEDTAVYYCARWSGDTTGIRGPWFAYWGQGTLVTVSSGGGGSGGGGSEVQLVQSGAEVKKPGSSVKVSCKASGYTFTESYMYWVKQAPGQGLELIGRIDPEDGSTDYVEKFKNKATLTADKSTSTAYMELSSLRSEDTAVYFCARFGARSYFYPMDAWGQGTTVTVSSASTKGPSVFPLAPSSKSTSGGTAALGCLVKDYFPEPVTVSWNSGALTSGVHTFPAVLQSSGLYSLSSVVTVPSSSLGTQTYICNVNHKPSNTKVDKKVEPKSCDKTHTCPPCPAPEAAGGPSVFLFPPKPKDTLMISRTPEVTCVVVDVSHEDPEVKFNWYVDGVEVHNAKTKPREEQYNSTYRVVSVLTVLHQDWLNGKEYKCKVSNKALPAPIEKTISKAKGQPREPQVYTLPPSREEMTKNQVSLTCLVKGFYPSDIAVEWESNGQPENNYKTTPPVLDSDGSFFLYSKLTVDKSRWQQGNVFSCSVMHEALHNAYTQKSLSLSPGK
light: DIRMTQSPSSLSASVGDRVTITCLASEDIYSDLAWYQQKPGKSPKLLIYNANGLQNGVPSRFSGSGSGTDYTLTISSLQPEDVATYFCQQYNYFPGTFGQGTKLEIKGGSGGGGSGGETVLTQSPATLSLSPGERATLSCRASESVSTLMHWYQQKPGQQPRLLIYGASNLESGVPARFSGSGSGTDFTLTISSLEPEDFAVYFCQQSWNDPWTFGGGTKVEIKRTVAAPSVFIFPPSDEQLKSGTASVVCLLNNFYPREAKVQWKVDNALQSGNSQESVTEQDSKDSTYSLSSTLTLSKADYEKHKVYACEVTHQGLSSPVTKSFNRGEC
notes: DVD-Ig: outer hBEW-9E10.6 (VEGF), inner hBFU-3E2.1 (PDGF), linkers GS-H10 / GS-L10(dR); Human IgG1 L234A, L235A, H435A with kappa light chain
B2: 1B10.1_GS_CL-33675 (PR-1611292) (bispecific antibody, human IgG1, kappa, L234A L235A)
heavy: EVQLVESGGGLVQPGGSLRLSCAASGFSFSKYDMAWFRQAPGKGLEWVASITTSGVGTYYRDSVKGRFTVSRDNAKSTLYLQMNSLRAEDTAVYYCARGYGAMDAWGQGTTVTVSSGGGGSGGGGSEVTLRESGPALVKPTQTLTLTCTFSGFSLSTYGMGVGWIRQPPGKALEWLANIWWDDDKYYNPSLKNRLTISKDTSKNQVVLTMTNMDPVDTATYYCARIESSGPKYSFDYWGQGTMVTVSSASTKGPSVFPLAPSSKSTSGGTAALGCLVKDYFPEPVTVSWNSGALTSGVHTFPAVLQSSGLYSLSSVVTVPSSSLGTQTYICNVNHKPSNTKVDKKVEPKSCDKTHTCPPCPAPEAAGGPSVFLFPPKPKDTLMISRTPEVTCVVVDVSHEDPEVKFNWYVDGVEVHNAKTKPREEQYNSTYRVVSVLTVLHQDWLNGKEYKCKVSNKALPAPIEKTISKAKGQPREPQVYTLPPSREEMTKNQVSLTCLVKGFYPSDIAVEWESNGQPENNYKTTPPVLDSDGSFFLYSKLTVDKSRWQQGNVFSCSVMHEALHNAYTQKSLSLSPGK
light: DIQMTQSPSSLSASVGDRVTITCKASQDIDDYLSWYQQKPGKSPKLVIYAATRLADGVPSRFSGSGSGTDYTLTISSLQPEDFATYYCLQSSSTPWTFGGGTKVEIKGGSGGGGSGGEIVLTQSPGTLSLSPGERATLSCRASSGSIWYSFVSWYQQKPGQAPRLLIYADDQRASGIPDRFSGSGSGTDFTLTISRLEPEDFAVYYCQSYGINIDVVFGGGTKVEIKRTVAAPSVFIFPPSDEQLKSGTASVVCLLNNFYPREAKVQWKVDNALQSGNSQESVTEQDSKDSTYSLSSTLTLSKADYEKHKVYACEVTHQGLSSPVTKSFNRGEC
notes: DVD-Ig: outer hBEW-1B10.1 (VEGF), inner CL-33675 (PDGF), linkers GS-H10 / GS-L10(dR); Human IgG1 L234A, L235A, H435A with kappa light chain
B3: 1E3.4_GS_3E2.1 (PR-1612495) (bispecific antibody, human IgG1, kappa, L234A L235A)
heavy: EIQLVQSGSELKKPGASVKVSCKASGYPFTNSGMYWVKQAPGQGLEYMGWINTEAGKPTYADDFKGRFVFSLDTSVSTAYLQISSLKAEDTAVYFCARWGYISDNSYGWFDYWGQGTLVTVSSGGGGSGGGGSEVQLVQSGAEVKKPGSSVKVSCKASGYTFTESYMYWVKQAPGQGLELIGRIDPEDGSTDYVEKFKNKATLTADKSTSTAYMELSSLRSEDTAVYFCARFGARSYFYPMDAWGQGTTVTVSSASTKGPSVFPLAPSSKSTSGGTAALGCLVKDYFPEPVTVSWNSGALTSGVHTFPAVLQSSGLYSLSSVVTVPSSSLGTQTYICNVNHKPSNTKVDKKVEPKSCDKTHTCPPCPAPEAAGGPSVFLFPPKPKDTLMISRTPEVTCVVVDVSHEDPEVKFNWYVDGVEVHNAKTKPREEQYNSTYRVVSVLTVLHQDWLNGKEYKCKVSNKALPAPIEKTISKAKGQPREPQVYTLPPSREEMTKNQVSLTCLVKGFYPSDIAVEWESNGQPENNYKTTPPVLDSDGSFFLYSKLTVDKSRWQQGNVFSCSVMHEALHNAYTQKSLSLSPGK
light: ATQLTQSPSSLSASVGDRVTISCRASEGVYSYMHWYQQKPGKQPKLLIYKASNLASGVPSRFSGSGSGTDFTLTISSLQPEDFATYFCHQNWNDPLTFGQGTKLEIKGGSGGGGSGGETVLTQSPATLSLSPGERATLSCRASESVSTLMHWYQQKPGQQPRLLIYGASNLESGVPARFSGSGSGTDFTLTISSLEPEDFAVYFCQQSWNDPWTFGGGTKVEIKRTVAAPSVFIFPPSDEQLKSGTASVVCLLNNFYPREAKVQWKVDNALQSGNSQESVTEQDSKDSTYSLSSTLTLSKADYEKHKVYACEVTHQGLSSPVTKSFNRGEC
notes: DVD-Ig: outer hBEW-1E3.4 (VEGF), inner hBFU-3E2.1 (PDGF), linkers GS-H10 / GS-L10(dR); Human IgG1 L234A, L235A, H435A with kappa light chain
B4: CL-33675_GS_4G8.5 (PR-1612496) (bispecific antibody, human IgG1, kappa, L234A L235A)
heavy: EVTLRESGPALVKPTQTLTLTCTFSGFSLSTYGMGVGWIRQPPGKALEWLANIWWDDDKYYNPSLKNRLTISKDTSKNQVVLTMTNMDPVDTATYYCARIESSGPKYSFDYWGQGTMVTVSSGGGGSGGGGSEIQLVQSGSELKKPGASVKVSCKASGYTFTNYGMYWVRQAPGQGLEYMGWINTETGKPTYADDFKGRFVFSLDTSVSTAYLQISSLKAEDTAVYFCARTNYYYRSYIFYFDYWGQGTMVTVSSASTKGPSVFPLAPSSKSTSGGTAALGCLVKDYFPEPVTVSWNSGALTSGVHTFPAVLQSSGLYSLSSVVTVPSSSLGTQTYICNVNHKPSNTKVDKKVEPKSCDKTHTCPPCPAPEAAGGPSVFLFPPKPKDTLMISRTPEVTCVVVDVSHEDPEVKFNWYVDGVEVHNAKTKPREEQYNSTYRVVSVLTVLHQDWLNGKEYKCKVSNKALPAPIEKTISKAKGQPREPQVYTLPPSREEMTKNQVSLTCLVKGFYPSDIAVEWESNGQPENNYKTTPPVLDSDGSFFLYSKLTVDKSRWQQGNVFSCSVMHEALHNAYTQKSLSLSPGK
light: EIVLTQSPGTLSLSPGERATLSCRASSGSIWYSFVSWYQQKPGQAPRLLIYADDQRASGIPDRFSGSGSGTDFTLTISRLEPEDFAVYYCQSYGINIDVVFGGGTKVEIKGGSGGGGSGGATQLTQSPSLSASVGDRVTITCRASESVSTHMHWYQQKPGKQPKLLIYGASNLESGVPSRFSGSGSGTDFTLTISSLQPEDFATYFCQQSWNDPFTFGQGTKLEIKRTVAAPSVFIFPPSDEQLKSGTASVVCLLNNFYPREAKVQWKVDNALQSGNSQESVTEQDSKDSTYSLSSTLTLSKADYEKHKVYACEVTHQGLSSPVTKSFNRGEC
notes: DVD-Ig: outer CL-33675 (PDGF), inner hBDB-4G8.5 (VEGF), linkers GS-H10 / GS-L10(dR); Human IgG1 L234A, L235A, H435A with kappa light chain
B5: 3E2.1_GS_4G8.5 (PR-1612499) (bispecific antibody, human IgG1, kappa, L234A L235A)
heavy: EVQLVQSGAEVKKPGSSVKVSCKASGYTFTESYMYWVKQAPGQGLELIGRIDPEDGSTDYVEKFKNKATLTADKSTSTAYMELSSLRSEDTAVYFCARFGARSYFYPMDAWGQGTTVTVSSGGGGSGGGGSEIQLVQSGSELKKPGASVKVSCKASGYTFTNYGMYWVRQAPGQGLEYMGWINTETGKPTYADDFKGRFVFSLDTSVSTAYLQISSLKAEDTAVYFCARTNYYYRSYIFYFDYWGQGTMVTVSSASTKGPSVFPLAPSSKSTSGGTAALGCLVKDYFPEPVTVSWNSGALTSGVHTFPAVLQSSGLYSLSSVVTVPSSSLGTQTYICNVNHKPSNTKVDKKVEPKSCDKTHTCPPCPAPEAAGGPSVFLFPPKPKDTLMISRTPEVTCVVVDVSHEDPEVKFNWYVDGVEVHNAKTKPREEQYNSTYRVVSVLTVLHQDWLNGKEYKCKVSNKALPAPIEKTISKAKGQPREPQVYTLPPSREEMTKNQVSLTCLVKGFYPSDIAVEWESNGQPENNYKTTPPVLDSDGSFFLYSKLTVDKSRWQQGNVFSCSVMHEALHNAYTQKSLSLSPGK
light: ETVLTQSPATLSLSPGERATLSCRASESVSTLMHWYQQKPGQQPRLLIYGASNLESGVPARFSGSGSGTDFTLTISSLEPEDFAVYFCQQSWNDPWTFGGGTKVEIKGGSGGGGSGGATQLTQSPSLSASVGDRVTITCRASESVSTHMHWYQQKPGKQPKLLIYGASNLESGVPSRFSGSGSGTDFTLTISSLQPEDFATYFCQQSWNDPFTFGQGTKLEIKRTVAAPSVFIFPPSDEQLKSGTASVVCLLNNFYPREAKVQWKVDNALQSGNSQESVTEQDSKDSTYSLSSTLTLSKADYEKHKVYACEVTHQGLSSPVTKSFNRGEC
notes: DVD-Ig: outer hBFU-3E2.1 (PDGF), inner hBDB-4G8.5 (VEGF), linkers GS-H10 / GS-L10(dR); Human IgG1 L234A, L235A, H435A with kappa light chain

These binders were tested against VEGF-A (UniProt P15692-4 27-191, limits assumed) (assay: SPR (Biacore), DVD-Ig captured by anti-human Fc, antigen injected).
Method: (§1) For example, approximately 9000 RU of goat anti-human Fc specific polyclonal antibody (Thermo Fisher Scientific Inc., Rockford, Ill.) diluted in 10 mM sodium acetate (pH 4.5) is directly immobilized across a CM5 research grade biosensor chip using a standard amine coupling kit according to manufacturer's instructions and procedures at 25 μg/ml. Unreacted moieties on the biosensor surface were blocked with ethanolamine. For kinetic analysis, rate equations derived from the 1:1 Langmuir binding model were fitted simultaneously to multiple antigen injections (using global fit analysis) with the use of Scrubber 2 (BioLogic Software), Biacore Biaevaluation 4.0.1 software or Biacore T100 Evaluation software. Purified antibodies or DVD-Ig molecules were diluted in running buffer for capture across goat anti-human Fc reaction surfaces. Antibodies or DVD-Ig molecules to be captured as a ligand (1 μg/ml) were injected over reaction matrices at a flow rate of 10 μl/minute. During the assay, all measurements were referenced against the capture surface alone (i.e., with no captured antibody or DVD-Ig molecule). […] The equilibrium dissociation constant KD (M) of the reaction between antibodies and the target antigen was then calculated from the kinetic rate constants by the following formula: KD=Koff/Kₒₙ. Binding was recorded as a function of time and kinetic rate constants were calculated.

Chain of VEGF-A (P15692 other isoform, or with tags, fused parts or gaps limits assumed): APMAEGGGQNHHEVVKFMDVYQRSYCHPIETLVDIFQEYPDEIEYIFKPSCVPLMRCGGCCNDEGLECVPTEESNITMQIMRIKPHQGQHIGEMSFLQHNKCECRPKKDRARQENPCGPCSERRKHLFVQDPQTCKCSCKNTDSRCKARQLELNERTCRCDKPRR

Compared with B1, B2 is 21-fold higher in Kd: 0.003 nM for the first, 0.062 nM for the second. The first binds more tightly here.

First: B3
Second: B4
The Kd of the first is 18-fold lower: 0.0098 nM for the first, 0.18 nM for the second.

With B5 the Kd was 0.17 nM.

Going from B1 to B2, the kon falls from 8.6e+06 M⁻¹ s⁻¹ to 2.1e+06 M⁻¹ s⁻¹ (4.1-fold).

First: B3
Second: B4
The kon of the first is 23-fold higher: 5.3e+06 M⁻¹ s⁻¹ for the first, 230000 M⁻¹ s⁻¹ for the second.

Work on B5 yielded a kon of 240000 M⁻¹ s⁻¹.

The binders below were run against PDGF-BB (UniProt P01127 82-190) in the same assay as above.
Method: as §1

Chain of PDGF-BB (P01127 82-190): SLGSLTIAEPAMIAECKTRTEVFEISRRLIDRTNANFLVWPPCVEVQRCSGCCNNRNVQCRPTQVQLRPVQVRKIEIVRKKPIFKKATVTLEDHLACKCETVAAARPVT

Going from B1 to B2, the Kd falls from 0.036 nM to 0.00054 nM (67-fold). The second binds more tightly here.

First: B3
Second: B4
The Kd of the first is 52-fold higher: 0.012 nM for the first, 0.00023 nM for the second. The second binds more tightly here.

In the case of B5, the Kd is reported as ≤ 0.0038 nM.

First: B1
Second: B2
The kon of the first is 3.8-fold lower: 5.8e+06 M⁻¹ s⁻¹ for the first, 2.2e+07 M⁻¹ s⁻¹ for the second.

B3 and B4 are within 1.5-fold of each other in kon: 4.5e+07 M⁻¹ s⁻¹ for the first, 3.8e+07 M⁻¹ s⁻¹ for the second.

In the case of B5, the kon is reported as ≥ 9e+07 M⁻¹ s⁻¹.
